Target: T1, human thioredoxin-1 (Trx1) protein (human, UniProt P10599 1-105)
T1 construct: also called naked Trx1; antigen
T1 sequence (looked up): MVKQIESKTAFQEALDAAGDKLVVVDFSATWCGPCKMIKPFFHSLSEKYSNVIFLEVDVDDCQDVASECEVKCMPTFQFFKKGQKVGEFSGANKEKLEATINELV
Test: ELISA on coated Trx1 (100 ng/well), antibody diluted 1/5 from 0.1 µM, fit with Prism

Kd: 0.011 nM
B1: monoclonal antibody B266-1 (antibody, V domains shown)
VH: EVQLQQSGAELVKPGASVKLSCTASGFNIKDTFMHWVKQRPEQGLEWIGRIDPANGNTKYDPKFQGKATITADTSSNTAYLQLSSLTSEDTAVYYCALLQYSAMDYWGQGTSVTVSS
VL: QIVLTQSPAIMSASPGEKVTMTCSASSRISYMYWYQQKPGTSPKRWIYDTSKLASGVPARFSGSGSGTSYSLTISTMEAEDAATYYCHQRSSYPTFGAGTKLELKS

Source: patent US20200200750A1 (E AND S HEALTHCARE, published 2020)
